One sequence from article PMC4621449 can be followed below.

The series concerns the target SO_3165 antitoxin (MNT family), SO_3165-CHis (Shewanella oneidensis (MR-1)) (UniProt Q8ECH7). Nature of the series: EMSA. Conditions: 10 mM HEPES pH 7.3, 20 mM KCl, 1 mM MgCl2, 5% glycerol, NP-40, poly dI-dC, 25 C, 1 h; 0.05 pmol biotin-DNA; 6% gel in 0.5x TBE. For orientation: Mobility shift assays separate free from complexed probe on a gel.

SO_3165 antitoxin (MNT family), SO_3165-CHis (Shewanella oneidensis (MR-1)), sequence (Q8ECH7 whole entry): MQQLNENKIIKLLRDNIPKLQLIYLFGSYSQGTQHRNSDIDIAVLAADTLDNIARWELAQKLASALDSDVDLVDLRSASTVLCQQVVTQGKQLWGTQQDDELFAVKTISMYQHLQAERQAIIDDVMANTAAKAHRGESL

As for “TACGAGGCCAGAATTTAAAAGCGCAGCCGTCAGAAATGCAGCGATTAGAAGAAGTTGAAACTTCCGATGCAACCTCTTCAGACGCTGAACTACCAATACTTAAGCACACACATATAGAAAACCCGTCCCTACTATACCATAAACAATGTCAGGTACTGCGTATCGTTATAGAATGCACTAAAAAGTTCTAGATTAGAGCCACACAGTGGCGTCTTCAAAACCTGTGTCCGTCCTTTTGGCTCCGCCTTAATATGCTATATACTCATCCCGTATTCATCAAATCGTGCAATGGACCT (double strand) [PSO_3165-3166 promoter]”, the binding result was “binds”.
